Results on 11 molecules are retold here after patent publication US20090286854A1, “APTAMERS DIRECTED TO MUCI” (The Open University, published 2009).

In data set [1] the target is 5TR MUC1 recombinant protein (human). Kind of data set: affinity chromatography, elution from the MUC1 chromatography matrix.
Data set [2] deals with T1, MUC1 5TR (five tandem repeat recombinant MUC1, unglycosylated) (Homo sapiens, UniProt P15941 P15941:161-260). Kind of data set: SPR; 100 mM NaCl, 5 mM MgCl2, pH 7.4; printed ka and kd would give 0.69 nM. The settings on record: tags: 6xHis; expressed in E. coli BL21; biotin-XX labelled for SPR; about 11.8 kDa. The protocol: (§1) Biotinylated 5TR-MUC1 protein was immobilised on a BIAcore SA sensor chip (gold-streptavidin) and the system was optimised to reduce mass transport, steric hindrance, crowding, avidity and aggregation. A range of peptide concentrations, ranging from 1 μM to 1 nM were tested under different injection times and the optimum conditions used were 100 μL of 1 nM peptide in running buffer perfused over each individual channel at the rate of 25 μL/min for […]. Chip regeneration to peptide level was followed by the subsequent application of a 30 sec pulse with a solution of 10 mM NaOH. The aptamers were prepared in their selection buffers (phosphate buffer containing 100 mM NaCl, 5 mM MgCl₂, pH 7.4) at 1 μM and were applied with 30 sec injections with a 5 sec wash step with selection buffer to allow for non-specific analyte removal. The chip surfaces were regenerated (elution step) by the application of a 10 μL pulse of 1.5 M NaCl, 5 mM MgCl₂, pH 7.4.
T1 sequence (P15941 141-240, one chain of several): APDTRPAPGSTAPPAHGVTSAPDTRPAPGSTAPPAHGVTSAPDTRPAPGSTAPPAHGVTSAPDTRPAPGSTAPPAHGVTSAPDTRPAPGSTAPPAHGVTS
(§2) The experimental BIAcore data were fitted to two mathematical equations for the determination of association (kₐ) and dissociation constants (kd) using non-linear regression analysis. […]
(§3) The concentration of free aptamer was assumed to be constant since an excess amount was applied to the system when compared to the amount of MUC1. […] The Kd was calculated from the following relationship: Kd is equal to kd/kₐ. […]

Data set [3] has as its target MUC1 5TR glycosylated with GalNAc (Tn antigen) (Homo sapiens, UniProt P15941 P15941:161-260). Kind of data set: pulldown; Ni-NTA magnetic beads, 100 mM NaCl, 5 mM MgCl2, pH 7.4, 37 C; values in figure only. Particulars: tags: 6xHis; expressed in E. coli BL21; glycosylated in vitro with ppGalNAc-T1. The protocol: The Qiagen kit containing agarose magnetic beads in the proportion of 5% solution coated with nickel for His-tag purification was used for the assay. Seven tubes each containing 900 μl of start buffer (100 mM NaCl₂, 5 mM MgCl₂, pH 7.4) used to resuspend a 10 μM solution of glycosylated MUC1 5TR peptide were prepared according to manufacturer's instructions:
10 μl of the 5% beads solution was added to the solution and incubated at 4° C. for half an hour with shaking, After 30 minutes, supernatant was removed. The beads were washed by adding start buffer, allowing 1-5 min of washing time. 1 mM (500 μl) of each Glycosylated MUC1 aptamer solution in start buffer were added to the previously prepared magnetic beads containing his-tagged glycosylated MUC1. The solution containing complexed beads and aptamer solution were allowed to incubate at 37° C. for 1 hour with shaking.
After one hour the supernatant was removed and its absorbance was measured using a UV spectrometer (Eppendorf, USA) at 260 nm. The remaining Magnetic beads were washed three times with 500 μl of wash buffer (150 mM NaCl₂, 5 mM MgCl₂, pH 7.4). The supernatant was removed and 50 μl of elution buffer (1.5M NaCl₂, 5mM MgCl₂, pH 7.4) were added. The elution buffer was allowed to incubate with magnetic beads for 5 min with shaking. The magnetic beads were spun for 30 seconds at 4000 rpm to a pellet. The magnetic beads were attracted by a magnetic bar and supernatant was removed. The eluted supernatant was removed and measured using a UV spectrometer (Eppendorf, USA) 260 absorbance.

Data set [4] addresses T1, MUC1 5TR (five tandem repeat …). The data set can be described thus: SPR; 100 mM NaCl, 5 mM MgCl2, pH 7.4; printed ka and kd would give 0.85 nM; p17 and claim list print SEQ 2 with 3' G instead of C. Particulars: tags: 6xHis; expressed in E. coli BL21; biotin-XX labelled for SPR; about 11.8 kDa. How it is done:
as §1, §2, §3
For orientation: SPR reads the build-up and loss of mass on a sensor chip optically.

For data set [5] the target is unchanged. Kind of data set: SPR; 100 mM NaCl, 5 mM MgCl2, pH 7.4; printed ka 0.207e7, kd 0.00098 would give 0.47 nM. Particulars: tags: 6xHis; expressed in E. coli BL21; biotin-XX labelled for SPR; about 11.8 kDa. The protocol:
as §1, §2, §3

For data set [6] the target is unchanged. The data set can be described thus: SPR; 100 mM NaCl, 5 mM MgCl2, pH 7.4; printed ka and kd would give 0.83 nM. Particulars: tags: 6xHis; expressed in E. coli BL21; biotin-XX labelled for SPR; about 11.8 kDa. How it is done:
as §1, §2, §3

Chain of MUC1 5TR glycosylated with GalNAc (Tn antigen) (P15941 141-240, one chain of several): as above
Chain of 5TR MUC1 recombinant protein (human) (main, as listed by the source): as the sequence (P15941 141-240, one chain of several) above

Turning to C595 anti-MUC1 monoclonal antibody, the NaSCN concentration at elution from the affinity matrix in data set [1] came to 0.8 M.
Regarding TACTGCATGCACACCACTTCAACTA (ssDNA) [MUC1 5TR-4], the Kd in data set [2] amounted to 69 nM.
Turning to GCTGGGTAAATAGATGATTCCCGGC (ssDNA) [5TR-T4], the binding result in data set [3] is listed as “binds”.
Turning to GGCTATAGCACATGGGTAAAACGAC (ssDNA) [MUC1 5TR-2], in data set [4], the Kd is 85.2 nM.
Take TAGCCTTAATGCCTTTGTAAGGCGA (ssDNA) [5TR-T6]: in data set [3], the binding result was “binds”.
Still for that read-out and setting: in the case of GGGTTATATTACTCGGCCGGTGTAA (ssDNA) [5TR-T1] it was “binds”.
On to GAAGTGAAAATGACAGAACACAACA (ssDNA) [MUC1 5TR-1], for which the Kd in data set [5] amounted to 47.3 nM.
CAAACAATCAAACAGCAGTGGGGTG (ssDNA) [MUC1 5TR-3]: the Kd in data set [6] was found to be 83 nM.
For GGCGTACGGTAGGCGGGGTCAACTG (ssDNA) [5TR-T3], the binding result in data set [3] is “binds”.
On to AGTGGTGGTTTTATAAGACTGATAC (ssDNA) [5TR-T5], for which the binding result in data set [3] is recorded as “binds”.
On the same count and under the same terms, with CGGTCTACGGAGCCGCGTTAAACTT (ssDNA) [5TR-T7] the entry was “binds”.

What is called Kd is the free concentration of one partner at which half of the binding sites on the other are occupied at equilibrium, for simple one-to-one binding.
